In the DeepSol protein solubility set:

Assay: soluble on expression in E. coli; label from the status in PepcDB or PDB records

Soluble on expression in E. coli, not soluble:
MGSDKIHHHHHHMRLPLNQRVAILLHEGTTGTIGKTGLALLRYSEAPIVAVIDRNCAGQSLREITGIYRYVPIVKSVEAALEYKPQVLVIGIAPKGGGIPDDYWIELKTALQAGMSLVNGLHTPLANIPDLNALLQPGQLIWDVRKEPANLDVASGAARTLPCRRVLTVGTDMAIGKMSTSLELHWAAKLRGWRSKFLATGQTGVMLEGDGVALDAVRVDFAAGAVEQMVMRYGKNYDILHIEGQGSLLHPGSTATLPLIRGSQPTQLVLVHRAGQTHNGNNPHVPIPPLPEVIRLYETVASGGGAFGTVPVVGIALNTAHLDEYAAKEAIAHTIAETGLPCTDVVRFGADVLLDAVMQN
MGSDKIHHHHHHMRLVLSGYYGFYNVGDEAILQSIIKALYEEEPTLELVVLSNDPDYTRKMYGVEAVNRWDIRAIYKEIKRSSGLISGGGSLLQDKTSIKSILYYTGIMRIARFLKKPYYIYAQGIGPITKRQNRLLVKWQVSKAEYISVRDEDSFLYLKEIGIKKDIELVPDPVLACQSEGMKSEWLQKHSIQGKVIAVSVRYWDAKEDYMKKLADTLKKFKRDGYHILFVPMHGPFDQNASRDIINLMGEEAHMLPYKLDIHEKISIFSECSLLIGMRLHALILSAVANIPMVGISYDPKVDSFLQQVNQPIIGNVDGDWTAETLYNVAMKQLEQKEYIQAKLEQRVEELREQISTASRYIISDLNSKEFKKENVEFHK
MGSDKIHHHHHHMRNEYFFRVAGLTFSVILPGGLDAETLLPSFRPFRCGECPEGERIFRLLADTRPFADDGKRAELLDESSNDMGHVCLLRIPGGYRTEISYGPMDGGAHLMTVDTAFDDATAFLRVEDPSMGEVLSSMLRILYAQAALGRDAVSVHASCVSLKGRGYLFLGKSGTGKSTHSRQWLEAFPDCRLLNDDNPVLRIEDGMVSVYGTPWSGKTPCYRNERRPVAGIVRLQQSGTNRFTPLEGPEAFAALLPSCSAIRQDIRLHDELCRILIRVTEQVPVGRLECLPDREAAWLCFESLYVRDAKAREVRDGLPENGGL
MGSDKIHHHHHHMRNINYFFAGSLLLLSGCQLIPNGDIPADDETNINPTLEVVSPTESDTREQVVEARDLWQRMQEGMHWEKPNEAYVAPFRQKLLANPRHLEQVFSRAEPFLYLIVDELERRGLPLELALLPAIESAFDADAISHASASGLWQLTPPMARYFGLKMNWWYDGRNDVVASTRAAADFLEYLYDRTGNNWHYAIAAYNSGEGRVLSAVRHNEKAGKPTDIWALKLPRETRNYVPNLLALADVVKHADKYGVSLPRIKNEPVVDVVEIGSQIELALAAELAGLSVSELKSLNPGFKQWATAPKGPHRLVVPVSNAPDFVVALAQTPQEQRVQWARYQIKRGDSLSVIARQFGTTPQVLKQVNQMKNNQLIAGKELVVPANGRTNASAQLASATPKQSYKVKSGDSLWKIAQAHGISVNDLKKWNSLGSKAIIRQGQLLTVWPGSKAVANTRSTTYQVKRGDSLSLIAQKFKVKISELMSWNKLSSSALQPGQTLTVMLQ
MGSDKIHHHHHHMRQTFIARKISFISLIHFRDEYMSPQNNHLQRPPAAVLYADELAKLKQNDNAPCPPGWQLSLPAARAFILGDSAQNISRKVVISPSAVERMLVTLATGRGLMLVGEPGTAKSLLSELLATSISGDAGLTIQGGASTTEDQIKYGWNYALLINHGPSTEALVPAPLYQGMRDGKIVRFEEITRTPLEVQDCLLGMLSDRVMTVPELTGEASQLYAREGFNIIATANTRDRGVNEMSAALKRRFDFETVFPIMDFAQELELVASASARLLAHSGIPHKVPDAVLELLVRTFRDLRANGEKKTSMDTLTAIMSTAEAVNVAHAVGVRAWFLANRAGEPADLVDCIAGTIVKDNEEDRARLRRYFEQRVATHKEAHWQAYYQARHRLP
MGSDKIHHHHHHMRRFFKNNLRNLSQNGETNSVRRCFALADVTVVINGRTLTVPDNLTVIEACEKAGIEIPALCHHPRLGESIGACRVCVVEVEGARNLQPACVTKVRDGMVIKTSSDRVKTARKFNLALLLSEHPNDCMTCEANGRCEFQDLIYKYDVEPIFGYGTKEGLVDRSSPAIVRDLSKCIKCQRCVRACSELQGMHIYSMVERGHRTYPGTPFDMPVYETDCIGCGQCAAFCPTGAIVENSAVKVVLEELEKKEKILVVQTAPSVRVAIGEEFGYAPGTISTGQMVAALRRLGFDYVFDTNFGADLTIMEEGSEFLERLEKGDLEDLPMFTSCCPGWVNLVEKVYPELRTRLSSAKSPQGMLSAMVKTYFAEKLGVKPEDIFHVSIMPCTAKKDEALRKQLMVNGVPAVDVVLTTRELGKLIRMKKIPFANLPEEEYDAPLGISTGAAALFGVTGGVMEAALRTAYELKTGKALPKIVFEEVRGLKGVREAEIDLDGKKIRIAVVHGTANVRNLVEKILRREVKYHFVEVMACPGGCIGGGGQPYSRDPEILRKRAEAIYTIDERMTLRKSHENPAIKKLYEEYLEHPLSHKAHELLHTYYEDRSRKKRLAVK
MGSDKIHHHHHHMRRSSLKEPGPASAIRTENFTRGMGEVPAALGKVCRGGSHAKAHERGLIMLISQILDDAETIRVVARNGGKTRIINGARSVYSLAMEAARTGVGLATLIERKGLGETVDLDAAYKKGRLLSPINHPDPAHLHLTGTGLTHLGSAATRDSMHKKLSSADGEEQLTDSMKMFRMGLEGGKPAKGQVGVQPEWFYKGNGTMAVAPGAALLSPAFAKDAGEEPEIAGIYVIGDDGAPFRVGFTLSNEFSDHVTERVNYLFLAHSKLRNASFGPEILIGDLPSDIRGTSRIVRDGETLWEKPFLSGEANMSHTIANLEHHHFKYSAFRQPGDVHVHMFGTATLSFADGVKTEAGDVFEIEAGDFGLPLRNPLEIEKPVKVAVKAL
MGSDKIHHHHHHMRSAAVDYAPSQAERRNFQRVRVKIYGRFMLEDRTEHPCQVVDMSPGNVAFRTDRIGMPGEKVIAYIDHIGRIEGVVTRTLQDGFAMTVIASDRKKDKLAAQLTWLANKHELDLPEDRRHERVAPRNPTSVLQLTDGRQYQCRIIDLSLSGAAIEIDVKPAIGVQVMLGTMRGQIVRHFEDGVAIEFAVIQRPETLDSEFNTPRA
MGSDKIHHHHHHMRSIKNITLGLATVGVMSLSGCAGDYLDTIPSTSVSETTINTSLDNLYIALNGIHKEMVSQESGYQCLGGEPGFMMSRDAEADDMNWQTNTWMKAAYLGWQCNMNETNGYNYKFWQIYYQWILNANKILAGLEEVEITSQELFDQIKGEALCIRAWAHFNLVQLYAKRYEAGKDNTQDGIPYREKAVAEEQARNSVEDVYAKINNDLDEACILLSGIKVNDVNHYSEMVAWGLKARVALAMQDYNNAAVYAGKSVSLAEAGGHRLMTGSQLNCGFANITTDTKEAMYAAMTPDDKTVYFYSYYAYMSWNFNSSAIRQGVKCINVDAYETMSETDLRRAWWDPTGEASVPSSSYAKNAYQNRKFTARSTADAVGDVAFMRLAEMYLTQAEALARAGKDSEAQAVFTKFQITRDPSYVSKGNIGDALAEEIMNSRRVELWGEGFRFL
MGSDKIHHHHHHMRSKGVMIPRIMSTQHPDNYSIPFFASSPILGGEDEITEAFYAFSVLGADEQMWDFEGKEVDEFVVKKLLERYPTFFKENILGEDLRLTPRVPNPSVEKAEAKLLLETLQGITRAADYARVFYLDNIAPIFEVILPMTTSLAEMLRVHELYRKIVSLSGEVIYDVTVKEWIGEFYPKEINVIPLFETKVALLKSGRIIREYIGRKRPEYLRVFFARSDPAMNYGLLSAVTYVKKALEQVGEVEEETSTPIYPIIGVGSPPFRGGMRPENVKKVLKEYPSVQTYTIQSSFKYDHPTKDVVKAVEIVKSKKREAPDPLDIPEFIQLYEIEYQKQLKILAPYIRNIVTRIPDRRKRKLHIGLFGYSRNVGGLSLPRVIKFTASLYSIGLPPELLGLNELSDNQLDSISEYYKNLYDDLEFAMRFFSFKVAERVGLRELSEKVKEFKPDIDDEYVREAELVFRGQGDVMKLAQIRGFLG
MGSDKIHHHHHHMRTYRSFKMFTNSSQGVRKVRVGIAGLGTVGGSIYRILKERGNEIEKRIGEKFIISKVINRSPQKYELLGVPKEEIAFDFDDLILNSDVVVEAIGGTDVAVDLVRRALELGRIVVTPNKNLISEYGNEFSEYIKKRKLFFEASVGGGIPIISLLQDYLIFQKVTRIRGIMNGTTNYILTEMSKGRHFEEVLKEAQELGYAEADPTNDIEGYDVAYKVSVLAGVVTGRFPGINSVQFEGITRIDPEYLKEIVRSGKKLKLIGELDFSTNRYEVRLREVTPEDPFFNVDGVDNAIEVSTDLAGDFLLKGRGAGGYPTASAVIADLFRVAKYKVLGGAEKFSVVVMKFGGAAISDVEKLEKVAEKIIKRKKSGVKPVVVLSAMGDTTDHLIELAKTIDENPDPRELDLLLSTGEIQSVALMSIALRKRGYKAISFTGNQLKIITDKRYGSARIIDINTDIISRYLKQDFIPVVAGFQGITETGDITTLGRGGSDLTAIALAYSLGADLCELYKDVDGVYTADPRIVKDARVIKELSWEEMIELSRHGAQVLQARAAEFARKYGVKVLIKNAHKETRGTLIWEGTKVENPIVRAVTFEDGMAKVVLKDVPDKPGVAARIMRTLSQMGVNIDMIIQGMKSGEYNTVAFIVPESQLGKLDIDLLKTRSEAKEIIIEKGLAKVSIVGVNLTSTPEISATLFETLANEGINIDMISASSSRISVIIDGKYVEDAVKAIHSRFELDRE
MGSDKIHHHHHHMRVLVTGANGFVGSRLAGQLGRSDHFSLACAVRTTGTCRFGEEYSIGELGPKTDWSAALRGQDVVVHLAARAHVMDDEAPDPLVEYRRVNVDGTLNLARQAIDAGVRRFVFVSSIKVNGEQTDLGQPFTSDQITAPADAYGISKLEAERGLLALGKESGMEVVIIRPPLVYGPGVKGNFATLIKLVEKGFPLPLGAISNKRTLVSLDNLVDLIQVCIDHPAAANEVFLAGDNSDLSTSELLREIGKAVGKPARLIPVPQGFLMVAARLLGKTDVARRLFGSLQVDISKARHLLGWEPPVSVEEGLRRCFELESRS
MGSDKIHHHHHHMRYRRFGRTELAMPVFSCGGMRYQQSWKDVDWPEISVESQANLEATLARSLELGINHIETARYYGSSERQLGKALAAYPRSEIILQTKVPPSEDPAEFLETFDRSMSLLQTDYVDLLSIHGVNNAELLDWALRKGGSLDVAERLQAEGRVRHIGFSTHAPLPVILEAIASDRLSYINLHWYYIFQTNQAALEAAQKHDMGVFIISPSDKGGHLYSPPQKLVDLCEPLHPMVFNDLFCLSQPQIHTLSIGAARPSDFDRHLETLPLLDQADQVLPPILERLEAAATAALGQDWLDTWMVGLPTPDTTPGEINIPTIVWLYNLVQAFDMVKYAKARYNLLGNGGHWFPGQRAGQFDPVALSAALDQSPHRDRILQILKEMDAWLGGESVVRLSQSS
MGSDKIHHHHHHMRYSICYTPSARDPLSLAAASWLGRNVYSDEPVEHPGLAGLGLHEIAFHTALPRRNGFHGCLKAPFALHPEVSEAQLLRELMHFAGIVEPFALPGLEVAKLGDFCGLTLTHPSNQLDRVAALVVQNFDRFRAPLSDAEIERMAPERLSAPQFANLYRWGDPHVLDEYRFYMPLTGPLPLSHRDRLHQAATHYFAPLLQNPVVFANLALFIEREPGAPLVVHSLHPMGRVSARKIA
MGSDKIHHHHHHMSAEEQINQFKKFCAAIISFDEEEWQAMEKCLRIKFLSKDDYFLRQGKTCSRMGFVCKGYTRLFFLIDGEEHTKDFCFENTFTGSLASFLVRKPAAFNVVAMEDTYMLTIEYNALMELYKNYMCWNTFGRIVVEQFAIRKENREVTFLLNTPEKRYEEVSDQYPHLLQRAPLKMIASYLNMTPETLSRIRSKKTK
